Data published in paper PMC6156121 (Science Advances, 2018).

Target: purified mTOR protein (Origene) (human, UniProt P42345 1-2549)
Assay: co-IP

binding result: binds
B1: purified ETV7 protein (Origene) (natural protein)
chain: MQEGELAISPISPVAAMPPLGTHVQARCEAQINLLGEGGICKLPGRLRIQPALWSREDVLHWLRWAEQEYSLPCTAEHGFEMNGRALCILTKDDFRHRAPSSGDVLYELLQYIKTQRRALVCGPFFGGIFRLKTPTQHSPVPPEEVTGPSQMDTRRGHLLQPPDPGLTSNFGHLDDPGLARWTPGKEESLNLCHCAELGCRTQGVCSFPAMPQAPIDGRIADCRLLWDYVYQLLLDTRYEPYIKWEDKDAKIFRVVDPNGLARLWGNHKNRVNMTYEKMSRALRHYYKLNIIKKEPGQKLLFRFLKTPGKMVQDKHSHLEPLESQEQDRIEFKDKRPEISP
